The assay concerns the target mosPTP-1 including the transmembrane region (91bp-2202bp), Aedes aegypti AAEL013105, on S2 cells (Aedes aegypti). The experiment in a line: flow cytometry on cells.

Bounds are passed on as bounds.

“mosGCTL-1 (mosquito Galactose-specific binding C-Type Lectin), Aedes aegypti AAEL000563 (natural protein)”: the percent of mosPTP-1-expressing cells that bound mosGCTL-1 was more than 40%.
